Laboratory results reported in patent US6884600B1, “Protein phosphatase-1 catalytic subunit interactions” (Medical Research Council London, priority 1996, dated 2005).

How the values were obtained:
[1] = biological target: PP1c (γ1-isoform) (Homo sapiens, UniProt P36873); experiment: Far Western: GST-GM fusion proteins probed with digoxygenin-labelled PP1γ; assay type: binding; details: GST-fusion proteins on blot probed with digoxygenin-labelled PP1γ
From the text: GST-GM fusion proteins were electrophoresed on 10% SDS/polyacrylamide gels and stained with Coomassie blue (lanes 1-3) or, after transfer to nitrocellulose, probed with digoxygenin-labelled PP1γ (lanes 4-6) as in [9]. Lanes 1 and 4, GST-GM-(E2-D118); Lanes 2 and 5, GST-GM-(H100-P350); Lanes 3 and 6, GST. The positions of the marker proteins glycogen phosphorylase (97 kDa), bovine serum albumin (66 kDa), ovalbumin (43 kDa), carbonic anhydrase (29 kDa) and soybean trypsin inhibitor (20 kDa) are indicated.
The myosin-associated form of PP1 (PP1M) was from chicken gizzard and the glycogen-associated form of PP1 (PP1G) from rabbit skeletal muscle. The β isoform of PP1c was released from PP1G by incubation for 2 hours in 2M LiBr, then purified by gel-filtration on a 30×1 cm column of Superose 12 (Pharmacia, Milton Keynes, U.K.) in the presence of 0.5M LiBr. Glycogen protein particles from rat liver were used as the source of hepatic PP1G Digoxygenin-labelled PP1c (γ1-isoform, hereafter termed PP1) was prepared as in [9]. GL was expressed in E. coli as a glutathione-S-transferase (GST) fusion protein [7], termed GST-GL. The catalytic subunit of PP2A from bovine heart (PP2AC) was provided by Dr R. MacKintosh in this Unit. The phosphorylatable myosin light chain (MLC20) and heavy meromyosin from chicken gizzard were a gift from Dr M. Ikebe (Case Western Reserve University, Cleveland, USA). Thrombin and benzamidine-Agarose were purchased from Sigma (Poole, UK).
The amino acid sequence of rat hepatic GL is 23% identical (39% similar) to residues 1-286 of GM from human skeletal muscle. […] Fusion proteins in which GST was linked to fragments of GM were therefore tested for their ability to bind to PP1c. […] We therefore synthesised GM-(G63-T93) and examined its effect on the enzymatic properties of PP1GL, the form of PP1 associated with rat hepatic protein-glycogen particles.

[2] = system: MLC20 and glycogen phosphorylase; experiment: MLC20 phosphatase:phosphorylase phosphatase activity ratio of PP1 preparations; assay type: biochemical
Description: The M110 and M21 subunits are marked. The activity ratio, MLC20 phosphatase (MP):phosphorylase phosphatase (PhP) of the two preparations is also shown. Similar results were obtained in three different experiments. The activity ratio MP:PhP of PP1c is 0.07.
^32P-labelled rabbit skeletal muscle phosphorylase a (containing 1.0 mol phosphate per mol subunit) was prepared by phosphorylation with phosphorylase kinase, ^32P-labelled rabbit skeletal muscle glycogen synthase (containing 1.5 mol/mol subunit in the sites 3 region) was prepared by phosphorylation with glycogen synthase kinase-3 [24]). ^32P-labelled chicken gizzard MLC20 and ^32P-labelled chicken gizzard heavy meromyosin (containing 1.0 mol phosphate per mol subunit) were prepared by phosphorylation with smooth muscle myosin light chain kinase. The dephosphorylation of phosphorylase a (10 μM), glycogen synthase (1 μM) and MLC20 (1 μM) and heavy meromyosin (1 μM) was carried out as in [24]. One unit of activity (U) was that amount which released […] of phosphate in one minute.
PP1M (0.01 ml, 0.4U/ml) was dissociated by incubation for 30 minutes with 500 μM arachidonic acid and then for 30 minutes with 0.08 ml of packed Protein G-Sepharose coupled to 0.08 mg of affinity purified anti-M21 antibody. The Protein G-Sepharose was pelleted, and the supernatant diluted at least 15-fold to allow the M110 subunit and PP1c to recombine. […]

[3] = biological target: T1, myosin (Gallus gallus, UniProt P10587); experiment: Myosin binding assay (pelleting with myosin); parameters: species or system chicken; details: myosin 1 μM, 15 min 0° C.
T1 construct: from tissue; host or cells: chicken gizzard
T1 sequence (P10587 whole entry): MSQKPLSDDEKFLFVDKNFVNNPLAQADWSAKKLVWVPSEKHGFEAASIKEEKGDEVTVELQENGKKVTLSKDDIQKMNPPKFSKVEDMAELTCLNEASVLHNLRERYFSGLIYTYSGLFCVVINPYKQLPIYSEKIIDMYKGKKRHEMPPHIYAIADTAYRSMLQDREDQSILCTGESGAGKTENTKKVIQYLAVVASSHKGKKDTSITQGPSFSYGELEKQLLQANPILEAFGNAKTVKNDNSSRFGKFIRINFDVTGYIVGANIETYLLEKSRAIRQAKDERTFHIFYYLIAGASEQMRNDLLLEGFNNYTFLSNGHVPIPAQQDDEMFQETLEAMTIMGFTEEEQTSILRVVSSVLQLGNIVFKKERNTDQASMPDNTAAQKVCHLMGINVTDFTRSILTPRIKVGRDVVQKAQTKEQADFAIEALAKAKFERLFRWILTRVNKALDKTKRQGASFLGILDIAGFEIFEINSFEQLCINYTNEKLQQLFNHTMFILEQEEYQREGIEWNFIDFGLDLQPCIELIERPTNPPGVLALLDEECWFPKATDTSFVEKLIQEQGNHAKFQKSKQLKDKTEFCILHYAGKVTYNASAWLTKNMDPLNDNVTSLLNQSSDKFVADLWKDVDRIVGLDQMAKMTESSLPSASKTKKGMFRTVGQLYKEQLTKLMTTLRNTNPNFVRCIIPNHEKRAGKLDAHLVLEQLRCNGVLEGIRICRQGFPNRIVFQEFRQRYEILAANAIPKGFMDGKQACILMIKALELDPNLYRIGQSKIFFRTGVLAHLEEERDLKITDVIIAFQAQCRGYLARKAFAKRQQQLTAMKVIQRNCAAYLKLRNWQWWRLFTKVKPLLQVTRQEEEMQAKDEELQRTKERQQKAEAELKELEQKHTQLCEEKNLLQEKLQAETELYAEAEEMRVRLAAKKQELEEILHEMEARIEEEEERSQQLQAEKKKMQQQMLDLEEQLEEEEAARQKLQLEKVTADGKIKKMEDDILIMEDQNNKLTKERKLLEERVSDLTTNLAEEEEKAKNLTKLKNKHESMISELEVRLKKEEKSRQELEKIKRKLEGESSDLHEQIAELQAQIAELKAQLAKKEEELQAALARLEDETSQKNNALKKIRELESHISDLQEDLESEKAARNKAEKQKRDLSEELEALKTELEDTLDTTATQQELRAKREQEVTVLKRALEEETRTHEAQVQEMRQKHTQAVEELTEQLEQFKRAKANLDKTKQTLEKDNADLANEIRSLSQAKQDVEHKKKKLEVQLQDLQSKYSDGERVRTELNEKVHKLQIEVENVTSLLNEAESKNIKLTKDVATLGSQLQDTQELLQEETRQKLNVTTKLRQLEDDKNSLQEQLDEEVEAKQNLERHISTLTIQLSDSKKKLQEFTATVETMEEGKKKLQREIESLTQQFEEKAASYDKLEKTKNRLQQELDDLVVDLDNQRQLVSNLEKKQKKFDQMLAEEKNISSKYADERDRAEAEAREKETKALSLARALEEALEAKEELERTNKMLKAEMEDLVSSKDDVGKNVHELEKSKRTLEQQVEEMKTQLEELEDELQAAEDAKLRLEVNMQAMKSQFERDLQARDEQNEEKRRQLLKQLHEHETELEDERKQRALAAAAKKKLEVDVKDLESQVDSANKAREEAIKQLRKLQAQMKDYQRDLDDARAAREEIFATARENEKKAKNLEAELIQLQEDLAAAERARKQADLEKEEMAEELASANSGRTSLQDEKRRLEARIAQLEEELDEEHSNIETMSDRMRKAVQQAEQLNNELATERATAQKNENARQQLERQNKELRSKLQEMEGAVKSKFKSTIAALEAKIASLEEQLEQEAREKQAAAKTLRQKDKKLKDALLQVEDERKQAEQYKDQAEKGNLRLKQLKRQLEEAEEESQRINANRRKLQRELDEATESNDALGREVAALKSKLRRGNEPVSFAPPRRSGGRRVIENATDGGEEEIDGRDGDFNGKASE
T1 sequence (P02612 whole entry partner): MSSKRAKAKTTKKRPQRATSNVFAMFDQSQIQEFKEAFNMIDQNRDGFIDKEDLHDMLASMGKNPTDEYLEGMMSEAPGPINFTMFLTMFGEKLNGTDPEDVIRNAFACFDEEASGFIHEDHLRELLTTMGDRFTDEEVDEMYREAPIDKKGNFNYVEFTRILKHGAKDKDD
T1 sequence (P02607 whole entry partner): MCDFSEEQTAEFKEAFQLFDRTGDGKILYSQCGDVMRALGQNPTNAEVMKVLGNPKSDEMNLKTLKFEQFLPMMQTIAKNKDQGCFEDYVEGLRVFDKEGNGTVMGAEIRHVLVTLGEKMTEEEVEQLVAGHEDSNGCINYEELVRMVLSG
Description: The PP1 catalytic subunit (PP1c), PP1M, or PP1M lacking the M21 subunit, PP1M(ΔM21), each at 30 nM, were incubated for 15 min at 0° C. with 1 μM myosin and centrifuged (see Methods of Example 3). […] The results shown are the average (±S.E.M.) for three separate experiments each assayed in duplicate.
(A); PP1M, M110-(M1-S477) and GST-M110-(M377-K976), each at 30 nM were incubated for 15 min at 0° C. with 1 μM myosin and centrifuged. The supernatants (S), resuspended pellets (P) and the suspension before centrifugation (T, total) were electrophoresed on 12% SDS/polyacrylamide gels, transferred to nitrocellulose and immunoblotted with antibodies raised against the PP1M holoenzyme. No protein was pelleted in the absence of myosin (not shown). The positions of the marker proteins myosin heavy chain (200 kDa), glycogen phosphorylase (97 kDa), bovine serum albumin (66 kDa), ovalbumin (43 kDa), carbonic anhydrase (29 kDa) and soybean trypsin inhibitor (20 kDa) are indicated. (B) The experiments were carried out as in (A), except that the M110 fragments and M21 subunit were used at 100 nM, the 8.5 kDa M110-(K933-I1004) fragment was electrophoresed on a 16.5% polyacrylamide gel and immunoblotting was carried out with affinity purified antibodies (see Methods). A small amount of M110-(R714-I1004) pelleted in the absence of myosin. […] No other protein was pelleted in the absence of myosin.
(A); Myosin (1 μM) was mixed with 50 μM, 20 μM or 10 μM M21 subunit to give the molar ratios M21:myosin dimer indicated. After 15 min at 0° C., the solutions were centrifuged and the supernatants (S), resuspended pellets (P) and the suspension before centrifugation (T, total) were electrophoresed on 12% SDS/polyacrylamide gels and stained with Coomassie blue. The positions of the myosin heavy chain (MHC) and the M21 subunit are indicated. The myosin light chains migrate faster than the M21 subunit and are not visible at these loadings.
Myosin binding assays. Myosin (0.5 mg/ml, 1 μM in terms of myosin heavy chains) in 10 mM Hepes pH 7.5, 50 mM KCl, 5 mM MgCl2, 0.1% (by vol) 2-mercaptoethanol, was mixed with PP1M, M21 subunit, or fragments of the M110 and M21 subunits, at the concentrations indicated in figure legends. After incubation for 15 min at 0° C., the solutions were centrifuged for 2 min at 13,000×g, the supernatants removed, and the pellets washed twice in 10 mM Hepes pH 7.5, 50 mM KCl, 5 mM MgCl2, 0.1% (by vol) 2-mercaptoethanol before resuspension in 50 mM Tris-HCl pH 7.5, 0.1 mM EGTA, 0.03% (by mass) Brij 35, 0.6 M NaCl, 0.1% (by vol) 2-mercaptoethanol. Aliquots of the supernatant, the resuspended pellet and the suspension before centrifugation were either assayed for myosin P-light chain phosphatase activity or denatured in SDS and analysed by SDS/polyacrylamide gel electrophoresis.

[4] = system: M21 subunit; experiment: Far Western blotting: interaction with the M21 subunit; assay type: binding, chicken; details: probe 0.2 μg/ml
Chain of M21 subunit (as listed by the source): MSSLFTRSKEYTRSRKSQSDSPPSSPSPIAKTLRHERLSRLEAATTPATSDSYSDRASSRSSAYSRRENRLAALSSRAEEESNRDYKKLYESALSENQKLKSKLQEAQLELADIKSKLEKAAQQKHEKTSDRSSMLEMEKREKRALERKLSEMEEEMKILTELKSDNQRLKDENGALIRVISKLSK
Description: A) PP1M 5 μg (track 1), 10 μg bacterial extract containing M110-(R714-I1004) (track 2), MBP-M110-(R714-I004) 1 μg (track 3), MBP-M110-(R714-L934) 1 μg (track 4), MBP-M110-(K933-I1004) 1 μg (track 5), MBP 1 μg (track 6), M110-(M1-E309) 2 μg (lane 7) and M110-(M1-S477) 2 μg (track 8) were run on a 12% SDS/polyacrylamide gel and stained with Coomassie Blue. B) same as A) except that 10-fold less protein was electrophoresed and after transfer to nitrocellulose the proteins were probed with digoxigenin-labelled M21 subunit (0.2 μg/ml). C) same as B) except that, after electrophoresis, the proteins were transferred to nitrocellulose and probed with digoxigenin-labelled M21-(M1-L146) (0.2 μg/ml).
A) GST-M21 5 μg (track 1), M21 5 μg (track 2), M21-(M1-L146) 5 μg (track 3), M21-(M1-E110) 20 μg (track 4) and M21-(E110-K186) 5 μg (track 5) were run on 16.5% polyacrylamide gels and stained with Coomassie Blue. The marker proteins ovalbumin (43 kDa) and carbonic anhydrase (29 kDa) are indicated. B) GST-M21 0.5 μg (track 1), M21 0.5 μg (track 2), M21-M1-L146) 0.5 μg (track 3), M21-(M1-E110) 5 μg (track 4) and M21-(E110-K186) 5 μg (track 5) were electrophoresed as in A) and after transfer to nitrocellulose the blots were probed with digoxigenin-labelled MBP-M110-(K933-I1004) (0.2 μg/Ml). C) same as B) except that, after electrophoresis, the proteins were transferred to nitrocellulose and probed with digoxigenin-labelled M21 subunit (0.2 μg/ml).
PP1M (0.5 μAg) was electrophoresed on a 12% SDS/polyacrylamide gel, transferred to nitrocellulose and probed with digoxigenin-labelled M21 subunit (0.2 μg/ml) (track 1) or digoxigenin-labelled M21-(M1-L146) (0.2 μg/ml) (track 2). The positions of the M110 subunit, the M21 subunit and PP1c are marked.
Proteins were labelled with digoxigenin and Far Western analyses carried out as described, except that the digoxigenin-labelled probe was used at a concentration of 0.2 μg/ml instead of 2 μg/ml. SDS/polyacrylamide gel electrophoresis was carried out on 7.5-15% gels according to Laemmli and on 16.5% gels according to Schagger and von Jagow. Protein was estimated according to Bradford.

Chain of PP1c (γ1-isoform) (P36873 whole entry, the tested form may be a part, canonical isoform): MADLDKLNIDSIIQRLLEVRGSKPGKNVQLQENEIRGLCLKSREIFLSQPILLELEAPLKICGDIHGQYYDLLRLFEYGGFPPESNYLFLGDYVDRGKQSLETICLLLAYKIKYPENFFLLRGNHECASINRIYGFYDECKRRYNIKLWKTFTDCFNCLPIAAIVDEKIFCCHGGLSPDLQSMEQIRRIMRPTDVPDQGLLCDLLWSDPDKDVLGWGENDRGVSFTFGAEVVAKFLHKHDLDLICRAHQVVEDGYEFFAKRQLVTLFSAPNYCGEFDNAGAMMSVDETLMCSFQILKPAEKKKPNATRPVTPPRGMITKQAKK

Molecule | interaction with PP1 in Far Western experiments [1] | MLC20 phosphatase:phosphorylase phosphatase activity ratio [2] | binding to myosin [3] | recognised by digoxigenin-labelled M21 subunit in Far Western blotting [4]
GST-GM-(H100-P350): GST fusion of amino acids 100-350 of human GM (protein, left off: a dimerising Fc or GST, GST fusion of amino acids 100-350 of human GM) HTEEYVLAPLFDLPSSKEDLMQQLQIQKAILESTESLLGSTSIKGIIRVLNVSFEKLVYVRMSLDDWQTHYDILAEYVPNSCDGETDQFSFKIVLVPPYQKDGSKVEFCIRYETSVGTFWSNNNGTNYTFICQKKEQEPEPVKPWKEVPNRQIKGCLKVKSSKEESSVTSEENNFENPKNTDTYIPTIICSHEDKEDLEASNRNVKDVNREHDEHNEKELELMINQHLIRTRSTASRDERNTFSTDPVNFP | not | – | – | –
PP1c: catalytic subunit of PP1 (protein) ADGELNVDSLITRLLEVRGCRPGKIVQMTEAEVRGLCIKSREIFLSQPILLELEAPLKICGDIHGQYTDLLRLFEYGGFPPEANYLFLGDYVDRGKQSLETICLLLAYKIKYPENFFLLRGNHECASINRIYGFYDECKRRFNIKLWKTFTDCFNCLPIAAIVDEKIFCCHGGLSPDLQSMEQIRRIMRPTDVPDTGLLCDLLWSDPDKDVQGWGENDRGVSFTFGADVVSKFLNRHDLDLICRAHQVVEDGYEFFAKRQLVTLFSAPNYCGEFDNAGGMMSVDETLMCSFQILKPSEKKAKYQYGGLNSGRPVTPPRTANPPKKR | – | 0.07 | neither PP1c (FIG. 22) nor bovine serum albumin (data not shown) bound to myosin | not
